Square brackets hold non-standard residues; d marks the D form. Ends that are not written are not given here. pS = N[C@@H](COP(=O)(O)O)C(=O)O A value given as a limit tells only on which side of the number the result lay.

This assay has as its target T1, HLA-A*02:01 (human).
T1 construct: MHC class I monomer made peptide-receptive by UV cleavage of a UV-sensitive ligand; also called peptide-receptive MHC molecules
In words: UV-ligand exchange ELISA (anti-β2m), peptide exchange yield grade. From the text:
Candidate peptides for T cell based therapies according to the present invention were further tested for their MHC binding capacity (affinity). The individual peptide-MHC complexes were produced by UV-ligand exchange, where a UV-sensitive peptide is cleaved upon UV-irradiation, and exchanged with the peptide of interest as analyzed. Only peptide candidates that can effectively bind and stabilize the peptide-receptive MHC molecules prevent dissociation of the MHC complexes. To determine the yield of the exchange reaction, an ELISA was performed based on the detection of the light chain (β2m) of stabilized MHC complexes. The assay was performed as generally described in Rodenko et al. (Rodenko et al., 2006).
96 well MAXISorp plates (NUNC) were coated over night with 2ug/ml streptavidin in PBS at room temperature, washed 4× and blocked for1h at 37° C. in 2% BSA containing blocking buffer. Refolded HLA-A*02:01/MLA-001 monomers served as standards, covering the range of 15-500 ng/ml. Peptide-MHC monomers of the UV-exchange reaction were diluted 100 fold in blocking buffer. Samples were incubated for 1h at 37° C., washed four times, incubated with 2 ug/ml HRP conjugated anti-β2m for 1h at 37° C., washed again and detected with TMB solution that is stopped with […]. Absorption was measured at 450 nm. Candidate peptides that show a high exchange yield (preferably higher than 50%, most preferred higher than 75 %) are generally preferred for a generation and production of antibodies or fragments thereof, and/or T cell receptors or fragments thereof, as they show sufficient avidity to the MHC molecules and prevent dissociation of the MHC complexes.
The molecule FLKNELDNV [peptide FLKNELDNV (SEQ ID NO: 161)] had a peptide exchange yield of 50 to 75%. Under GLHNVVYGI (also called GLHNWYGI) [peptide GLHNVVYGI (SEQ ID NO: 187)] stands 50 to 75%. In the case of RLYTKLLNEA [peptide RLYTKLLNEA (SEQ ID NO: 19)] it was 50 to 75%. Molecule YQFDKVGILTL [peptide YQFDKVGILTL (SEQ ID NO: 149)] gave a peptide exchange yield of 50 to 75%. LLADEDSSYL [peptide LLADEDSSYL (SEQ ID NO: 27)] showed a peptide exchange yield of 20 to 50%. Molecule SLADRLIGV [peptide SLADRLIGV (SEQ ID NO: 25)] had a peptide exchange yield of no less than 75%. In turn, RLLDFPEAMVL [peptide RLLDFPEAMVL (SEQ ID NO: 165)] showed a peptide exchange yield of no less than 75%. In turn, RLQETEGMVAV [peptide RLQETEGMVAV (SEQ ID NO: 171)] displayed a peptide exchange yield of 20 to 50%. ILLDDNMQIRL [peptide ILLDDNMQIRL (SEQ ID NO: 174)] showed a peptide exchange yield of no less than 75%.

As for KLGDLMVLL [peptide KLGDLMVLL (SEQ ID NO: 173)], the peptide exchange yield was in the range of 50 to 75%. As to RLL[pS]PLSSA (Phosphopeptide) [peptide RLLJPLSSA (SEQ ID NO: 179)], the peptide exchange yield is 50 to 75%. The molecule YLFREPATI [peptide YLFREPATI (SEQ ID NO: 178)] showed a peptide exchange yield of 20 to 50%.

Molecule LLLDTVTMQV [peptide LLLDTVTMQV (SEQ ID NO: 172)] displayed a peptide exchange yield of 50 to 75%. Turning to SLMMTIINL [peptide SLMMTIINL (SEQ ID NO: 156)], the peptide exchange yield was no less than 75%. Take AMAEMVLQV [peptide AMAEMVLQV (SEQ ID NO: 190)]: the peptide exchange yield lay in the range of 50 to 75%.

ALAGGITMV [peptide ALAGGITMV (SEQ ID NO: 170)] gave a peptide exchange yield of 50 to 75%.

The molecule FLVDGPRVQL [peptide FLVDGPRVQL (SEQ ID NO: 188)] returned a peptide exchange yield of 50 to 75%. Under GLIDEVMVL (also called CYP2W1-001) [peptide GLIDEVMVL (SEQ ID NO: 22)] stands 50 to 75%. Under ALAAARVEL [peptide ALAAARVEL (SEQ ID NO: 17)] stands 50 to 75%. For VLIDHRWVL [peptide VLIDHRWVL (SEQ ID NO: 21)], the peptide exchange yield lay in the range of 50 to 75%. TLQEVVTGV (also called TLQEWTGV) [peptide TLQEVVTGV (SEQ ID NO: 183)]: the peptide exchange yield lay within 50 to 75%. The molecule ALLQGAIESV [peptide ALLQGAIESV (SEQ ID NO: 177)] displayed a peptide exchange yield of 50 to 75%. For the molecule KMLDEILLQL [peptide KMLDEILLQL (SEQ ID NO: 164)], the peptide exchange yield is no less than 75%. YLAHFIEGL [peptide YLAHFIEGL (SEQ ID NO: 169)] returned a peptide exchange yield of 50 to 75%.

With RLLENMTEVV [peptide … (SEQ ID NO: 148)], the peptide exchange yield lay within 50 to 75%.

VLVDQSWVL [peptide VLVDQSWVL (SEQ ID NO: 16)] had a peptide exchange yield of 50 to 75%. In the case of KMSEKILLL [peptide KMSEKILLL (SEQ ID NO: 186)] it was 50 to 75%. For the molecule LQLDKEFQL [peptide LQLDKEFQL (SEQ ID NO: 15)], the peptide exchange yield lay within 50 to 75%. For the molecule GLSSAYGGL [peptide GLSSAYGGL (SEQ ID NO: 30)], the peptide exchange yield was in the range of 10 to 20%.

RLIPDTLYSV [peptide RLIPDTLYSV (SEQ ID NO: 3)] came in with a peptide exchange yield of no less than 75%.

Turning to TLLGGKEAQALGV [peptide TLLGGKEAQALGV (SEQ ID NO: 175)], the peptide exchange yield was in the range of 50 to 75%. The molecule ALLPRYFFL [peptide ALLPRYFFL (SEQ ID NO: 2)] gave a peptide exchange yield of 20 to 50%. Turning to FLDANGHFV [peptide FLDANGHFV (SEQ ID NO: 23)], the peptide exchange yield lay within 50 to 75%. With ILFSEDSTKLFV [peptide ILFSEDSTKLFV (SEQ ID NO: 153)], the peptide exchange yield is 50 to 75%. As for RLADLEALKV [peptide RLADLEALKV (SEQ ID NO: 150)], the peptide exchange yield lay within 50 to 75%. Take AISEVIGKITA [peptide AISEVIGKITA (SEQ ID NO: 189)]: the peptide exchange yield lay in the range of 50 to 75%. For QLFSEIHNL [peptide QLFSEIHNL (SEQ ID NO: 191)], the peptide exchange yield was no less than 75%. In the case of SAQGSDVSLTACKV [peptide SAQGSDVSLTACKV (SEQ ID NO: 151)] it was 50 to 75%; in that of KLLAVIHEL (also called RAD54B-002) [peptide KLLAVIHEL (SEQ ID NO: 152)], 20 to 50%. In the case of GLLDPSVFHV [peptide GLLDPSVFHV (SEQ ID NO: 158)], the peptide exchange yield was in the range of 50 to 75%. Molecule VLYTGVVRV [peptide VLYTGWRV (SEQ ID NO: 185)] showed a peptide exchange yield of 50 to 75%. Under SLLDENNVSSYL [peptide SLLDENNVSSYL (SEQ ID NO: 184)] stands 50 to 75%; under VLVDDDGIKVV [peptide … (SEQ ID NO: 159)], 20 to 50%; under FLSSLKGGLL [peptide FLSSLKGGLL (SEQ ID NO: 18)], 50 to 75%. With KLLEFDQLQL [peptide KLLEFDQLQL (SEQ ID NO: 160)], the peptide exchange yield is 50 to 75%. Consider GLIRFPLMTI [peptide GLIRFPLMTI (SEQ ID NO: 168)], for which the peptide exchange yield lay in the range of 50 to 75%.

Molecule VLDGVLMEL [peptide VLDGVLMEL (SEQ ID NO: 24)] displayed a peptide exchange yield of 50 to 75%. In turn, SVIDHIHLISV [peptide SVIDHIHLISV (SEQ ID NO: 167)] returned a peptide exchange yield of 50 to 75%. In the case of RTLDKVLEV [peptide RTLDKVLEV (SEQ ID NO: 176)] it was 20 to 50%. Molecule KLMDYIDEL [peptide KLMDYIDEL (SEQ ID NO: 162)] showed a peptide exchange yield of 50 to 75%.

QMLDVAIRV [peptide QMLDVAIRV (SEQ ID NO: 29)] displayed a peptide exchange yield of 50 to 75%. YLKDGDVML [peptide YLKDGDVML (SEQ ID NO: 20)] registered a peptide exchange yield of 50 to 75%. With ALTEIQEFI [peptide ALTEIQEFI (SEQ ID NO: 28)], the peptide exchange yield was no less than 75%. For RLLGEEVVRV (also called RLLGEEVVRV) [peptide … (SEQ ID NO: 155)], the peptide exchange yield was 50 to 75%. With GLASKENFSNVSL [peptide GLASKENFSNVSL (SEQ ID NO: 26)], the peptide exchange yield fell in the range of 20 to 50%. NLFDLGGQYLRV [peptide NLFDLGGQYLRV (SEQ ID NO: 181)] gave a peptide exchange yield of 50 to 75%. Molecule RLLHEVQEL [peptide RLLHEVQEL (SEQ ID NO: 163)] came in with a peptide exchange yield of 50 to 75%. In turn, GLLEARGILGL [peptide GLLEARGILGL (SEQ ID NO: 166)] displayed a peptide exchange yield of 50 to 75%.

Turning to SLNKWIFTV [peptide SLNKWIFTV (SEQ ID NO: 182)], the peptide exchange yield was no less than 75%. SLIERDLKL [peptide SLIERDLKL (SEQ ID NO: 157)] gave a peptide exchange yield of 50 to 75%. Regarding KLPSETIFVGC [peptide KLPSETIFVGC (SEQ ID NO: 154)], the peptide exchange yield is 50 to 75%.

Values taken from patent publication US20230212244A1 (IMMATICS BIOTECHNOLOGIES, published 2023).
